Measurements as given in article PMC11480844 (2024).

B1: H2-Kb / Ed16-1 (parent complex)
chain 1: GEQVEQRPPHLSVREGDSAVITCTYTDPNSYYFFWYKQEPGASLQLLMKVFSSTEINEGQGFTVLLNKKDKRLSLNLTAAHPGDSAAYFCAVSGSNNRIFFGDGTQLVVKP
chain 2: EAAVTQSPRSKVAVTGGKVTLSCHQTNNHDYMYWYRQDTGHGLRLIHYSYVADSTEKGDIPDGYKASRPSQENFSLILELASLSQTAVYFCASRTGTDYTFGSGTRLLVI
chain 3: not shown
chain 4: IQKTPQIQVYSRHPPENGKPNILNCYVTQFHPPHIEIQMLKNGKKIPKVEMSDMSFSKDWSFYILAHTEFTPTETDTYACRVKHDSMAEPKTVYWDRDM
chain 5: SIINFEKL

Variants of: B1
Test: % of reporter cells activated (NFAT-GFP), raw; further: test concentration or dose not given here

Row | ratio to parent | Variant
1 | 0.848 | chain 5 F5V
2 | 1.08 | chain 5 F5M
3 | 0.823 | chain 5 F5D
4 | 0.943 | chain 5 F5C
5 | 0.917 | chain 5 F5S
6 | 0.742 | chain 5 F5E
7 | 0.976 | chain 5 F5A
8 | 0.516 | chain 5 F5G
9 | 0.943 | chain 5 F5H
10 | 0.725 | chain 5 F5N
11 | 0.97 | chain 5 F5Q
12 | 1.02 | chain 5 F5L
13 | 0.818 | chain 5 F5R
14 | 0.843 | chain 5 F5T
15 | 0.803 | chain 5 F5K
16 | 0.699 | chain 5 F5W
17 | 1.07 | chain 5 F5Y
18 | 0.96 | chain 5 F5I
19 | 0.181 | chain 5 F5P
20 | 0.199 | chain 5 S1H
21 | 0.0909 | chain 5 S1R
22 | 0.0551 | chain 5 S1C
23 | 0.419 | chain 5 S1Y
24 | 0.0527 | chain 5 S1Q
25 | 0.0746 | chain 5 S1E

Row | ratio to parent | Variant
26 | 0.0013 | chain 5 S1F
27 | 0.48 | chain 5 S1A
28 | 0.66 | chain 5 S1T
29 | 0.0059 | chain 5 S1M
30 | 0.038 | chain 5 S1K
31 | 0.00139 | chain 5 S1I
32 | 0.0177 | chain 5 S1V
33 | 0.00107 | chain 5 S1L
34 | 0.521 | chain 5 S1G
35 | 0.00277 | chain 5 S1P
36 | 0.0326 | chain 5 S1N
37 | 0.0447 | chain 5 S1W
38 | 1.09 | chain 5 K7R
39 | 0.632 | chain 5 K7F
40 | 0.905 | chain 5 K7T
41 | 0.847 | chain 5 K7I
42 | 0.771 | chain 5 K7V
43 | 0.776 | chain 5 K7W
44 | 0.781 | chain 5 K7C
45 | 1.01 | chain 5 K7Q
46 | 0.91 | chain 5 K7A
47 | 0.903 | chain 5 K7N
48 | 1.17 | chain 5 K7P
49 | 0.832 | chain 5 K7L
50 | 0.912 | chain 5 K7S

Row | ratio to parent | Variant
51 | 0.848 | chain 5 K7M
52 | 0.924 | chain 5 K7G
53 | 1.04 | chain 5 K7Y
54 | 0.979 | chain 5 K7D
55 | 0.559 | chain 5 K7E
56 | 1.18 | chain 5 K7H
57 | 0.968 | chain 5 L8T
58 | 1.01 | chain 5 L8H
59 | 1 | chain 5 L8Y
60 | 0.85 | chain 5 L8C
61 | 0.861 | chain 5 L8N
62 | 0.883 | chain 5 L8E
63 | 0.941 | chain 5 L8S
64 | 0.994 | chain 5 L8G
65 | 0.834 | chain 5 L8D
66 | 0.935 | chain 5 L8R
67 | 1.01 | chain 5 L8A
68 | 1.02 | chain 5 L8I
69 | 1.03 | chain 5 L8M
70 | 0.952 | chain 5 L8F
71 | 1.07 | chain 5 L8Q
72 | 0.828 | chain 5 L8W
73 | 0.83 | chain 5 L8V
74 | 1.07 | chain 5 L8P
75 | 0.106 | chain 5 E6Y

Row | ratio to parent | Variant
76 | 0.187 | chain 5 E6G
77 | 0.00132 | chain 5 E6P
78 | 0.153 | chain 5 E6F
79 | 0.00912 | chain 5 E6C
80 | 0.00707 | chain 5 E6V
81 | 0.219 | chain 5 E6M
82 | 0.0059 | chain 5 E6I
83 | 0.117 | chain 5 E6W
84 | 0.371 | chain 5 E6D
85 | 0.608 | chain 5 E6K
86 | 0.0535 | chain 5 E6N
87 | 0.0059 | chain 5 E6L
88 | 0.187 | chain 5 E6Q
89 | 0.0174 | chain 5 E6A
90 | 0.0978 | chain 5 E6H
91 | 0.0513 | chain 5 E6S
92 | 0.00877 | chain 5 E6R
93 | 0.0356 | chain 5 E6T
94 | 0.926 | chain 5 I2T
95 | 1.06 | chain 5 I2M
96 | 1.04 | chain 5 I2C
97 | 1.1 | chain 5 I2V
98 | 0.743 | chain 5 I2K
99 | 0.976 | chain 5 I2E
100 | 0.627 | chain 5 I2H

Row | ratio to parent | Variant
101 | 0.607 | chain 5 I2N
102 | 0.597 | chain 5 I2Y
103 | 0.749 | chain 5 I2W
104 | 0.849 | chain 5 I2F
105 | 1.08 | chain 5 I2L
106 | 0.912 | chain 5 I2D
107 | 0.651 | chain 5 I2R
108 | 1.04 | chain 5 I2G
109 | 0.94 | chain 5 I2S
110 | 0.713 | chain 5 I2Q
111 | 1.01 | chain 5 I2A
112 | 0.794 | chain 5 I2P
113 | 0.883 | chain 5 I3A
114 | 0.0814 | chain 5 I3F
115 | 0.744 | chain 5 I3W
116 | 0.521 | chain 5 I3K
117 | 0.777 | chain 5 I3C
118 | 0.889 | chain 5 I3L
119 | 1.06 | chain 5 I3V
120 | 0.605 | chain 5 I3Q
121 | 0.473 | chain 5 I3G
122 | 0.716 | chain 5 I3T
123 | 0.00742 | chain 5 I3Y
124 | 0.755 | chain 5 I3N
125 | 0.842 | chain 5 I3M

Row | ratio to parent | Variant
126 | 0.592 | chain 5 I3S
127 | 0.864 | chain 5 I3E
128 | 0.301 | chain 5 I3R
129 | 0.865 | chain 5 I3P
130 | 0.172 | chain 5 I3D
131 | 0.33 | chain 5 I3H
132 | 0.00138 | chain 5 N4V
133 | 0.0372 | chain 5 N4D
134 | 0.00277 | chain 5 N4E
135 | 0.124 | chain 5 N4A
136 | 0.0165 | chain 5 N4I
137 | 0.0025 | chain 5 N4W
138 | 0.021 | chain 5 N4Y
139 | 0.0188 | chain 5 N4P
140 | 0.000769 | chain 5 N4M
141 | 0.0463 | chain 5 N4G
142 | 0.211 | chain 5 N4K
143 | 0.0302 | chain 5 N4F
144 | 0.19 | chain 5 N4R
145 | 0.0307 | chain 5 N4T
146 | 0.00253 | chain 5 N4C
147 | 0.000537 | chain 5 N4Q
148 | 0.492 | chain 5 N4S
149 | 0.617 | chain 5 N4L
150 | 0.0158 | chain 5 N4H
